# Reference: patent US12059437B2, “Methods and compositions for hematopoietic stem cell mobilization” (The Regents of the University of California, priority 2019, dated 2024)
# Experiments:
# [1] = tested on: HSCs (cKIT+lineage-SCA1+CD27+FLK2- cells); assay: HSC mobilization to the blood in mice (perfused blood, flow cytometry); type: in vivo, mouse
# Experimental: FIG. 1A: Experimental design for 2-hour HSC mobilization with sildenafil citrate plus AMD3100 (top), or 5-day GCSF treatment (bottom). GCSF was administered to mice once daily for 4 days (250 μg/kg). Sildenafil citrate was administered via oral gavage (OG; 3 mg/kg) once, 1 hr prior to a single subcutaneous (SQ) injection of AMD3100 (2.5 mg/kg). […]
# FIG. 2E: Experimental design for HSC mobilization with multiple daily doses of sildenafil citrate. Sildenafil citrate was administered orally (OG) at 10 mg/kg once daily for 3 days. AMD3100 (2.5 mg/kg-5 mg/kg) was injected subcutaneously (SQ) 1 hour after the third sildenafil citrate dose, followed 1 hour later by blood perfusion and analysis.
# Mobilization/tissue isolation. Mice were treated with subcutaneous (SQ) injections of rhGCSF (Amgen, Thousand Oaks, CA, 250 μg/kg) or a single dose of AMD3100 (Sigma, 2.5 mg/kg or 5 mg/kg where specified), or by oral gavage (OG) with sildenafil citrate (Viagra®; Sigma; 3, 10 or 30 mg/kg) (Motta et al., 2015) as indicated. Maximum blood was obtained by perfusing the mouse with PBS/20 mM EDTA through the left ventricle, clipping the right atrium and collecting the pooled perfused blood in the chest cavity. The total blood was processed for cell counts and flow cytometry analysis, as described previously (Smith-Berdan et al., 2011, 2015). Briefly, cells were pelleted by centrifugation, washed with 2% donor calf serum in PBS to remove EDTA, then incubated with fluorescently conjugated antibodies for flow cytometry analysis or resuspended in HBSS for transplantation into conditioned recipients.
# (§1) Flow cytometry. Cell labeling was performed on ice in 1× PBS with 5 mM EDTA and 2% serum. Antibodies used are listed in the supplemental table. Samples were analyzed for donor chimerism (detectable by either GFP or antibodies targeted at the CD45.1/2 locus) on an LSRII or AriaIII (Becton Dickinson, San Jose, CA), as described previously (Beaudin et al., 2016; Boyer et al., 2011, 2019; Leung et al., 2019; Smith-Berdan et al., 2011, 2015; Ugarte et al., 2015).
# HSCs = assay: Transplantation of mobilized blood into irradiated recipients (reconstitution, donor chimerism); type: in vivo, mouse; settings: compared to sildenafil citrate plus AMD3100; total donor chimerism 20 weeks post-transplantation
# Description: FIG. 1E: Donor chimerism over 5 months in lethally irradiated mice transplanted with blood from mice mobilized with AMD3100 alone or with both sildenafil citrate and AMD3100 as in the schedule shown in FIG. 1A. UBC-GFP mice were used as the mobilized donor mice, enabling identification of donor derived (GFP+) cells versus the unlabeled cells of the wild-type recipients. N=5-7 mice per cohort in 3 independent experiments. Paired t-test; *p<0.05 and **p<0.01.
# FIGS. 11 and 1J: Long-term multilineage engraftment upon serial transplantation of bone marrow cells from the primary recipients in FIGS. 1E-1H into secondary, lethally irradiated wt hosts. Total donor chimerism in the peripheral blood over the course of the experiment is shown on the left. Quantification of donor-derived B, T and GM cells, platelets and erythrocytes 20 weeks post-transplantation is shown on the right. Data represent three independent experiments, N=9-12 mice per cohort. Unpaired t-test; *p<0.05, **p<0.01, ***p<0.001.
# Transplantation of mobilized HSPCs. […]
# as §1, with “Cell labeling was performed on ice in 1× PBS with 5 mM EDTA and 2% serum. Antibodies used are listed in the supplemental table.” left out
Molecule,"increase of numbers of phenotypic HSCs compared to control mice ([1]; AMD3100 single SQ injection alone or plus a single oral sildenafil citrate dose (2-hour protocol), total perfused blood)",numbers of HSCs in the blood 4 hrs post-treatment ([1]; perfusion and blood analysis 4 hours post AMD3100),HSC mobilization ([1]; single subcutaneous dose),numbers of phenotypic HSCs in the blood compared to sildenafil citrate plus AMD3100 ([1]; 5-day GCSF protocol),numbers of HSCs in the bloodstream ([1]; 1 day after four consecutive days of G-CSF injections),"mobilization of HSCs and/or HPCs ([1]; FIGS. 2P and 2Q, GCSF 250 μg/kg for 4 days, AMD3100 5 mg/kg for 1 hour)",reconstitution of recipients by blood from mobilized donors (HSCs)
"c1cc(CN2CCCNCCNCCCNCC2)ccc1CN1CCCNCCNCCCNCC1 [AMD3100, reference compound]",2.9 fold,return to steady-state levels,"modest, but reproducible, HSC mobilization",,,,
"G-CSF: granulocyte-colony stimulating factor, rhGCSF (Amgen), standard mobilizing agent (protein, UniProt P09919 31-207, looked up) Granulocyte …: TPLGPASSLPQSFLLKCLEQVRKIQGDGAALQEKLVSECATYKLCHPEELVLLGHSLGIPWAPLSSCPSQALQLAGCLSQLHSGLFLYQGLLQALEGISPELGPTLDTLQLDVADFATTIWQQMEELGMAPALQPTQGAMPAFASAFQRRAGGVLVASHLQSFLEVSYRVLRHLAQP",,,,did not lead to significantly higher numbers of phenotypic HSCs,"~3,400 HSCs/mouse",effectively mobilizes HSCs and/or HPCs,reconstituted recipients more robustly
